Values belong to the binder of their own block, whether it stands above or below them.
What was measured:
[1] = target: T1, human ANGPTL8 (human, UniProt Q6UXH0 22-198); assay: sandwich ELISA on ex vivo serum samples
T1 construct: also called hANGPTL8; Angiopoietin-like protein 8
T1 sequence: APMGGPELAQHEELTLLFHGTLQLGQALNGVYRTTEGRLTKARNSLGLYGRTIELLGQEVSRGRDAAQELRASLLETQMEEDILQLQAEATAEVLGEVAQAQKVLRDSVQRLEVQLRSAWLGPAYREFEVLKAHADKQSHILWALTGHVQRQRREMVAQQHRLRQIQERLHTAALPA
Procedure: (§1) Proteins and mAbs stored at −80° C. were thawed and kept on ice, as they were needed. The wells of the ELISA plate were coated with capture mAb, at a concentration of 4 μg/mL in PBS, and a volume of 100 μL/well. The plate was covered with a plate sealer, and stored at 4° C. overnight (approximately 18 hours). The wells of the plate were then washed with 350 μL/well wash buffer (0.1% Tween-20 in PBS), for a total of 3 washes, using an automated plate washer. Excess wash remnants were removed by inverting and tapping the plate against clean paper towels. Blocking buffer (1% Fraction V BSA in PBS) was added at 300 μL/well. The plate was covered with a plate sealer, and placed on a plate shaker at room temperature, shaking at 300 rpm for a minimum of 1 hour.
(§2) After the blocking period, the wells of the ELISA plate were washed again, and excess wash remnants were removed, as previously described. The standards and the diluted samples were added to the plate in duplicate, with 100 μL/well. The plate was covered with a plate sealer and placed on a plate shaker at room temperature, shaking at 500 rpm for 2 hours. The wells of the ELISA plate were washed again, and excess wash remnants were removed, as previously described. The detection mAb was added at a concentration of 400 ng/mL in assay diluent (1% Fraction V BSA/0.1% Tween-20 in PBS), with 150 μL/well. […]

[2] = target: T2, human ANGPTL8 dimer protein with mouse Fc tag (human, UniProt Q6UXH0 22-198); assay: sandwich ELISA, capture mAb, dimer (mFc) standard
T2 construct: also called hANGPTL8.mFc; dimer form of human ANGPTL8; not shown: mouse Fc tag
T2 sequence: T1 sequence
Procedure: as §1, §2

[3] = target: T2, human ANGPTL8 dimer protein with mouse …; assay: sandwich ELISA, biotinylated detection mAb, dimer (mFc) standard
Procedure: as §1, §2

[4] = target: T1, human ANGPTL8; assay: immunoprecipitation from cell conditioned media, Western blot
Procedure: The selection process involved performing a series of immunoprecipitations (IPs), in which each mAb was incubated with cell conditioned media (CM) containing the human ANGPTL8 protein. A resin that identifies human IgG4 was then applied to the mAb/CM mixtures. The resin beads targeted the mAbs, binding the mAb-human ANGPTL8 complex. A series of Western blots probing for human ANGPTL8 were run on the various fractions of the IPs, and anti-human ANGPTL8 mAbs were selected based on high human ANGPTL8 expression in the IP fractions, with low human ANGPTL8 expression in the unbound fractions.

B1: H4H15361P2 (antibody, human IgG4, V domains shown)
VH: EVQLVESGGGLVQPGRSLRLSCTASGFSFGDNAMGWVRQAPGKGLEWVSFIRRKASGGTTEYAASVKGRFTISRDDSKSIAYLQMNSLKTEDTGVYYCTRGGAVYGYWGQGTLVTVSS
VL: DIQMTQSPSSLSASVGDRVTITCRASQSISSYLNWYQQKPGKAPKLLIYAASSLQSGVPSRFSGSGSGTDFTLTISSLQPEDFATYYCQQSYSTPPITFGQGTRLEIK
notes: also called anti-human C19orf80 (ANGPTL8) (H4H15361P2); biotinylated-H4H15361P2
- binding result [1]: binds
- binding result [2]: binds

B4: H4H15347P (antibody, human IgG4, V domains shown)
VH: EVQLVESGGGLVQPGGSLRLSCAASGFTFRNYAMNWARQAPGKGLEWVSGITGSGGATYYADSVKGRFTISRENSKNTLFLQMDTLRAEDTAVYYCAKDRRYFPTSGGPQWGQGTLVTVSS
VL: DIVMTQSPLSLPVTPGEPASISCRSSRSLLHSSGYNYLDWYLQKPGQSPQLLLYLGSNRASGVPDRFSGSGSGTYFTLKISRVDAEDVGVYYCMQALQTPWTFGQGTKVEIK
notes: Capture mAb of the final ELISA; also called anti-human C19orf80 (ANGPTL8) (H4H15347P); biotinylated-H4H15347P
- binding result [1]: binds
- binding result [2]: binds

Continued, values first:

- binding result [3]: binds
- binding result [4]: binds
B2: H4H15318P (antibody, V domains shown)
VH: QVQLVESGGGVVQPGRSLRLSCTASGFTFGNFGIHWVRQAPGKGLEWVAVISYDGTDKFYADPVKGRFIISRDNSMNILYLQMNSLRAEDTAVYYCAKDGEMELRGYYYYYGMDVWGQGTTVTVSS
VL: DIQMTQSPSSVSASVGDRVTITCRASQGINTWLAWYQQKPGTAPKLLIFAASSLESGVPSRFSGSGFGTDFTLTISSLQSEDLATYFCQQVHSPPYTFGQGTKLEIK
notes: Used unlabelled in the immunoprecipitation and as capture mAb, and biotinylated as detection mAb in the sandwich ELISA; also called biotin-H4H15318P; biotinylated anti-human C19orf80 (ANGPTL8) (biotin-H4H15318P)

- binding result [4]: binds
B3: H4H15341P (antibody, human IgG4, V domains shown)
VH: EVQLVESGGGLVQPGGSLRLSCAASGFTFNNHEMNWVRQAPGKGLEWVSYISSSGNTVTYADFLKGRFTISRDNAKNSLFLQMNSLRDEDTAVYYCARDHLSGTSPLSYWGQGTLVTVSS
VL: DIQMTQSPSSLSASVGDRVTITCQASQDINNYLNWFQQKPGKAPKLLIFDASNLETGVPSRFSGSGSGTDFTFTISSLQPEDIATYFCQQYENLPYTFGQGTKLEIK
notes: also called biotinylated-H4H15341P

Source: patent US20200393470A1 (Regeneron, published 2020)
